Experimental data: publication PMC8964982

Target: discoidin domain receptor 1 (DDR1) (human (endogenous in primary human umbilical artery SMCs)) (UniProt Q08345)
Assay: atomic force microscopy

Chain of Collagen type I (Corning), P02454 152-1207; P02466 86-1125 (ligand) (P02454 152-1207): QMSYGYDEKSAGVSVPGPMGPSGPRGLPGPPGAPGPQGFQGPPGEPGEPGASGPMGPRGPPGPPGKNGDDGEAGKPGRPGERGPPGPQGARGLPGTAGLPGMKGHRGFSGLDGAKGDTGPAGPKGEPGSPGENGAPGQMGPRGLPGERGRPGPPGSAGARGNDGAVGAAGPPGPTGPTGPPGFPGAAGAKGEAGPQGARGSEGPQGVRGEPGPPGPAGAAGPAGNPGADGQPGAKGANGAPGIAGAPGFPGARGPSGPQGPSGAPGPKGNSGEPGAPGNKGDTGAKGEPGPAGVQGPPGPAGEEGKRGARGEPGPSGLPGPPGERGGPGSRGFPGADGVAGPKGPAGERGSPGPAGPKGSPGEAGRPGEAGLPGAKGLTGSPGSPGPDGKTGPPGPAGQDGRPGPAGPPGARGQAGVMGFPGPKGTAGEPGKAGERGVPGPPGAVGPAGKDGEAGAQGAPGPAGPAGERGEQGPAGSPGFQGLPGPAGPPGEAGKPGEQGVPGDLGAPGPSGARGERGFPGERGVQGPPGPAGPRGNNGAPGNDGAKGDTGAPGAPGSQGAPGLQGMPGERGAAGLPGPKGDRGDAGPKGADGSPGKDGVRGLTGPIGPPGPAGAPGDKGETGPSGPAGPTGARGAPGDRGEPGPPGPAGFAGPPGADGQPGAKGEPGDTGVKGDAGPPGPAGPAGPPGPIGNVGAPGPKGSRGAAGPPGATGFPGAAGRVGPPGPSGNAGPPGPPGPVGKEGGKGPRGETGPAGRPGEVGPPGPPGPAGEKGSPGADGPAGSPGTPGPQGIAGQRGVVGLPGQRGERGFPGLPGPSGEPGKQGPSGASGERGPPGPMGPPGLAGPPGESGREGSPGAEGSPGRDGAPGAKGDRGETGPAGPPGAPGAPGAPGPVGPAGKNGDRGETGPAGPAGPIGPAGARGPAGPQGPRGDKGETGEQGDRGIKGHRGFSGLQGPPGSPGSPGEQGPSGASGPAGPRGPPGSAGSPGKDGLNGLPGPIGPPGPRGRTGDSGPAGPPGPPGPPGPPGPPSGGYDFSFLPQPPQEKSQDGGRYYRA
Chain of Collagen type I (Corning), P02454 152-1207; P02466 86-1125 (ligand) (P02466 86-1125): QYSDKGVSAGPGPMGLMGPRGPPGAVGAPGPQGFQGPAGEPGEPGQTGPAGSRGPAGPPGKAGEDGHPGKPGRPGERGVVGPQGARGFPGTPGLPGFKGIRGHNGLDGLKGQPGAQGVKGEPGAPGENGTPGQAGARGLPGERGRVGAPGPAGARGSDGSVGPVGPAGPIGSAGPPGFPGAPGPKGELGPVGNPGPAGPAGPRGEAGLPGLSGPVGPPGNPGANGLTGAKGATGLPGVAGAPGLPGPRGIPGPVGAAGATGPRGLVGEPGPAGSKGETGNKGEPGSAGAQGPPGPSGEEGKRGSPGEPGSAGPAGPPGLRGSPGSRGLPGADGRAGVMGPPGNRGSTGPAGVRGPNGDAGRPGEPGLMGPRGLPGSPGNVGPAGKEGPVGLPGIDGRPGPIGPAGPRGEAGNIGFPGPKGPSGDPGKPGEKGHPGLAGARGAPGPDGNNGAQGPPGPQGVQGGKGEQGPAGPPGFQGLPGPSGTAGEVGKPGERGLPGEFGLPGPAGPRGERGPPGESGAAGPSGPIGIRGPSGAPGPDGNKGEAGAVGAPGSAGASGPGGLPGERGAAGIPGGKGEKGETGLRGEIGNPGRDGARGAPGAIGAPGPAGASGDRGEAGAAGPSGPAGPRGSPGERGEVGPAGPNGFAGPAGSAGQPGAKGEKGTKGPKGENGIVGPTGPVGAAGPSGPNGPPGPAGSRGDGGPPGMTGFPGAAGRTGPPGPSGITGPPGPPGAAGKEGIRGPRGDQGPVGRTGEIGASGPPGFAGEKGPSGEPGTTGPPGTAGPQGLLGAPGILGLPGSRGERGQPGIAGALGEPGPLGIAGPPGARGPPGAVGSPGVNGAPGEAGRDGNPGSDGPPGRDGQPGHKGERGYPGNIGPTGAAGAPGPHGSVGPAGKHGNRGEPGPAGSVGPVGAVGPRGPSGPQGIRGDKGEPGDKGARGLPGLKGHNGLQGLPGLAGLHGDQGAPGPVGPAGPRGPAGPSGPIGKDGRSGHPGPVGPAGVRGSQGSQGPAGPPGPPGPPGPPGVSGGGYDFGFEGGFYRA
Chain of discoidin domain receptor 1 (DDR1) (human (endogenous in primary human umbilical artery SMCs)) (Q08345 19-913): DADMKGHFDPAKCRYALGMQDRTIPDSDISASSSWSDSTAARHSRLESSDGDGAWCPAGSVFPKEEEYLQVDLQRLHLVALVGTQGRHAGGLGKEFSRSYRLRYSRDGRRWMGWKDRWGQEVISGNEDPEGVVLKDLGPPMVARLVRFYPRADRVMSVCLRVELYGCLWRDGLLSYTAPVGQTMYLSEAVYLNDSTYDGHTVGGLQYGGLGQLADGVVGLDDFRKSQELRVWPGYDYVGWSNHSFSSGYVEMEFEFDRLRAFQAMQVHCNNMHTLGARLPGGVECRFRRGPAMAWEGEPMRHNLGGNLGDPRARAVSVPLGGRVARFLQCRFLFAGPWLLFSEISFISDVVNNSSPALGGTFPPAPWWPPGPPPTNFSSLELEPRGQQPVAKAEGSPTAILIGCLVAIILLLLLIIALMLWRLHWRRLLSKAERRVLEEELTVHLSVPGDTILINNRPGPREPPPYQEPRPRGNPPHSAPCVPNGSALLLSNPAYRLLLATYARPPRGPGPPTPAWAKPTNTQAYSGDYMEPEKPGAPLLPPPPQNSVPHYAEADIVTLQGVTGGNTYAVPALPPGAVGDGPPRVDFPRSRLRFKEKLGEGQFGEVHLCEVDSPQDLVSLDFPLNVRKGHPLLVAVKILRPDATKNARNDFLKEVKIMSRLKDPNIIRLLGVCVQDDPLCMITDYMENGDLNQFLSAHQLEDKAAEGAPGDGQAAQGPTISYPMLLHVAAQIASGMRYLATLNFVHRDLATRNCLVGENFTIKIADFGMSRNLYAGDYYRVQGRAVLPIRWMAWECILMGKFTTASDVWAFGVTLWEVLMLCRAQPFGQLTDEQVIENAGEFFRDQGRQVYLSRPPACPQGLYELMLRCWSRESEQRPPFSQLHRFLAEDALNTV

Substance: Collagen type I (Corning), P02454 152-1207; P02466 86-1125 (ligand)
- adhesion probability (cells on soft gels): 18.3%
- adhesion probability (cells on stiff gels): 32.4%
